From patent US20220347267A1, “METHODS TO IMPROVE PATIENT RESPONSE TO IMMUNE CHECKPOINT INHIBITORS AND FUNCTIONAL TESTS TO PREDICT RESPONSE” (Biomarker Strategies, LLC, priority 2019, published 2022)

Columns and labels:
Assay in all cases: PD-L1 western blot after modulators (EM and MTAs)
Assay type in all cases: cell-based, human
A253 cells = settings: Head and neck A253, 30 minutes, 3 hours, 24 hours
Excerpt: (§1) Cell lines were acquired from ATCC, Sigma, or DSMZ. Human non-small cell lung carcinoma (NSCLC) cell lines H292 (ATCC no. CRL-1848.), H1299 (ATCC no. CRL-5803), H520 (ATCC no. CRL-5811), CALU6 (ATCC no. HTB-56), H1975 (ATCC no. CRL-5908), H460 (ATCC no. HTB-177), H2126 (ATCC no. CCL-256), H1650 (ATCC no. CRL-5883), and H2087 (ATCC no. CRL-5922) were used for this experiment along with head and neck squamous cell carcinoma (HNSCC) cell lines BHY (DSMZ ACC 404), CAL27 (ATCC no. CRL-2095), KYSE410 (Sigma), and A253 (ATCC no. HTB-41), melanoma cell lines A375 (ATCC no. CRL-1619), COL0853 (Sigma), and MM127 (Sigma) pancreatic cancer cell lines BXPC3 (ATCC no. CRL-1687), colorectal cancer cell lines […], HCT116 (ATCC no. CCL-247EMT), and breast cancer cell lines BT549 (ATCC no. HTB-122), BT20 (ATCC no. HTB-19), and T47D (ATCC no. HTB-133). Cells were maintained in manufacturer-recommended conditions at 37° C. inside humidified 5% CO2 incubators. Sub-cultivation and harvesting for all cell lines were performed using Accutase (GIBCO Life Technologies; cat. no. A1110501) at 37° C. for 10 minutes. Cell viability was measured using trypan blue exclusion staining in conjunction with the Countess II Automated Cell Counter (Thermo Fischer Scientific; cat. no. AMQAX1000). Measurements were made in duplicate and the average number of viable cells was recorded prior to experiments.
(§2) Enhancer Molecule and Therapies: IFNγ, (10 ng/ml; Sigma Aldrich, cat.no 11040596001), TNFα (10 ng/ml; BD Biosciences cat. no. 554618), Osimertinib (100 ng/ml; Selleckchem cat.no. S7297), Everolimus (100 ng/ml; Selleckchem cat.no S1120), GSK458 (10 ng/ml; Selleckchem cat. no. S2658), TNFb (50 ng/ml; Sigma Aldrich cat. no.), GSK795 (1,000 ng/ml; Selleckchem cat. no. S7492), IL-12 (50 ng/ml; Sigma Aldrich SRP3073), GM-CSF (50 ng/ml; Sigma Aldrich cat. no. G5035), IL-1a (1 ng/ml; Sigma Aldrich cat. no. 12778-), IL-6 (50 ng/ml; Sigma Aldrich), IL-17 (100 ng/ml; Sigma Aldrich cat. no. SRP3080), TGFb (1 ng/ml; Sigma Aldrich cat. no. T7039), and IL-10 (50 ng/ml; Sigma Aldrich cat. no. SRP3071) were administered to cell lines for various times including 30 minutes, 3 hour, and 24 hour time intervals prior to cell lysis and protein extraction.
(§3) To determine the effects of the aforementioned molecules on the modulation of PD-L1, we selected various NSCLC, HNSCC, breast cancer, melanoma, colorectal cancer, and pancreatic cancer cell lines as examples. Other diseases or cell lines could be used readily as could more complex samples such as cells isolated from xenografts and clinical samples. Cells were plated, for three different time points (30 minutes, 3 hours, and 24 hours), inside 6-well petri dishes with 2 mL of appropriate medium. Plates were incubated for 24 hours in 5% CO2 incubators at 37° C. After 24 hours, each 6-well plate was washed with PBS (Gibco Life Technologies, cat. no. 10010023) followed by fresh media being added along with each cell line's vehicle control or appropriate modulator for each specific time point, and were placed in CO2 incubators until their modulation time point was reached. Other conditions can be readily used, such as processing on automated systems such as SnapPath. At the end of each time point, while keeping plates on ice, cell lysis was conducted by aspirating culture medium from each plate, washing of each plate three times with 5 ml of cold PBS (Gibco Life Technologies, cat. no. 10010023) and culminated with the addition of cold 1× lysis buffer containing (Cell Signaling, cat. no. 9803 S) protease inhibitor cocktail (Cell Signaling, cat. no. 5871S), phosphatase inhibitor cocktail (Cell Signaling, cat. no. 5870S), and PMSF (Fisher Scientific, cat. no. ICN19538101). Plates were then placed on ice for ten minutes, swirling each plate intermittently. Aliquots of protein lysates were prepared and then stored at −80° C. until protein quantification and Western blot analysis was to be conducted. […]

A375 cells = settings: Melanoma A375, 30 minutes, 3 hours, 24 hours
Excerpt: as §1, §2, §3

BHY cells = settings: Head and neck BHY, 30 minutes, 3 hours, 24 hours
Excerpt: as §1, §2, §3

CAL27 cells = settings: Head and neck CAL27, 30 minutes, 3 hours, 24 hours
Excerpt: as §1, §2, §3

Calu6 cells = settings: NSCLC Calu6, 30 minutes, 3 hours, 24 hours
Excerpt: as §1, §2, §3

H1975 cells = settings: NSCLC H1975, 30 minutes, 3 hours, 24 hours
Excerpt: as §1, §2, §3

H2087 cells = settings: NSCLC H2087, 30 minutes, 3 hours, 24 hours
Excerpt: as §1, §2, §3

H520 cells = settings: NSCLC H520, 30 minutes, 3 hours, 24 hours
Excerpt: as §1, §2, §3

KYSE410 cells = settings: Head and neck KYSE410, 30 minutes, 3 hours, 24 hours
Excerpt: as §1, §2, §3

Measured: PD-L1 Response

B1: IFNγ: human IFNγ, modulator (10 ng/ml; Sigma Aldrich) (protein, UniProt P01579 24-161, looked up)
Interferon gamma: QDPYVKEAENLKKYFNAGHSDVADNGTLFLGILKNWKEESDRKIMQSQIVSFYFKLFKNFKDDQSIQKSVETIKEDMNVKFFNSNKKKRDDFEKLTNYSVTDLNVQRKAIHELIQVMAELSPAAKTGKRKRSQMLFRG
Up: all assays above
